From patent US20110145940, “TAL EFFECTOR-MEDIATED DNA MODIFICATION” (published 2011)

Target: AvrBs3 TALEN (BamHI fragment-FokI) (Xanthomonas campestris pv. vesicatoria, UniProt P14727 SEQ:26-1141)
Assay: cell_activity; yeast lacZ SSA assay, 18 bp spacer; optima 15 and 21 bp
Conditions: tags: FokI catalytic domain fusion, N-terminal NLS; chain copies: 2 (inferred); two sites in inverted orientation around spacer

B1: AvrBs3 site (dsDNA)
DNA 1: ATATAAACCTAACCATCC
DNA 2: GGATGGTTAGGTTTATAT
- activity: 15.8 fold over target-only control
